Measurements taken from article PMC8287571.

Legend:
[1] = test system: GST:atALKBH9B wt (Arabidopsis thaliana); test: EMSA; conditions: EMSA: 5 ng RNA in 10 ul Union Buffer (100 mM Tris-HCl pH 8.0, 1 M NaCl, 8 U RiboLock (so in the source)), 30 min at 4 C, 1.2% agarose; northwestern: 10 mM Tris-HCl pH …
[2] = test system: GST:RBD (Arabidopsis thaliana); test: EMSA; conditions: EMSA: 5 ng RNA in 10 ul Union Buffer (100 mM Tris-HCl pH 8.0, 1 M NaCl, 8 U RiboLock (so in the source)), 30 min at 4 C, 1.2% agarose; northwestern: 10 mM Tris-HCl pH …

3'UTR transcript of AMV RNA3/4
Kd [1]: 300 nM
Kd [2]: 640 nM
